For 2 molecules, Kd, koff and kon results are on record in patent CN115710315A (DONGGUAN PENGZHI BIOTECHNOLOGY CO LTD, dated 2023).

This assay addresses T1, CA15-3抗原 (UniProt P15941 24-1097, limits assumed).
T1 construct: The origin of the antigen preparation used in the assays is not described; also called CA15-3(MUC1); CA15-3蛋白
The experiment in a line: BLI, AMC sensor, antibody immobilised at 10 ug/ml, CA15-3 antigen in serial dilution. (In general: Biolayer interferometry detects binding as a change in optical thickness at a sensor tip.)

T1 sequence (P15941 24-1097 limits assumed): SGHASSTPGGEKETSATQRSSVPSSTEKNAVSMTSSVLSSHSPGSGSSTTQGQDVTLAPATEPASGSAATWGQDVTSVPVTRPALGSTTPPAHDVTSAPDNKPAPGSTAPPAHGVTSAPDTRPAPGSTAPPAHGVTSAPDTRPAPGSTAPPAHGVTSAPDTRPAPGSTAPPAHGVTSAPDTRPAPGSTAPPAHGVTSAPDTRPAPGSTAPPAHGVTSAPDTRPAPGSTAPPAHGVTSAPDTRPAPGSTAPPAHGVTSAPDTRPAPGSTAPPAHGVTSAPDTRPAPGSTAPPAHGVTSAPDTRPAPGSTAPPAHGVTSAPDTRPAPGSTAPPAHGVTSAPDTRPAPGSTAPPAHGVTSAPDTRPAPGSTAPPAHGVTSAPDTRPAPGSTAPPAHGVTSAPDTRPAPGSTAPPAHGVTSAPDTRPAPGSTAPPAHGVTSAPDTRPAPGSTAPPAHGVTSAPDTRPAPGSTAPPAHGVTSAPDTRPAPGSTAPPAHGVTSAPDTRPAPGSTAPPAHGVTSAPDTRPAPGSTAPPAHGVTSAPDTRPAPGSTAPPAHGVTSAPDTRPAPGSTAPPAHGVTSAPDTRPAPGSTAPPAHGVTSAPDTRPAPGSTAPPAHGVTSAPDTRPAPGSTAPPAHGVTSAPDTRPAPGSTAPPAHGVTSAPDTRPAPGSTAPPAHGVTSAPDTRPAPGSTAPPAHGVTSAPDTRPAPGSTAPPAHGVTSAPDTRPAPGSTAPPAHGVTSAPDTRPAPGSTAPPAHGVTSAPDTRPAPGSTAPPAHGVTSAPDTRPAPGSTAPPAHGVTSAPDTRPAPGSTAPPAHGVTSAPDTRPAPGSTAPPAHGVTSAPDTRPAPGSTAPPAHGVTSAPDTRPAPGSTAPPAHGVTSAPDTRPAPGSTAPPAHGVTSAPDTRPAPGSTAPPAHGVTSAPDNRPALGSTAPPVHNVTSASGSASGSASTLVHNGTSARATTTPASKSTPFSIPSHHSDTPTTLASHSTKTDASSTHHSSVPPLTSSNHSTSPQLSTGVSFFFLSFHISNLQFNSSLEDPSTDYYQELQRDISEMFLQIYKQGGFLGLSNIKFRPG

对照 (antibody) showed a dissociation constant (Kd) of 0.0845 µM, a koff of 0.00375 s⁻¹ and a kon of 44400 M⁻¹ s⁻¹.

B1: Anti-CA15-3 3F10 (antibody, V domains shown)
VH: EVQLVESGGGLVKPGGSLKLSCAASGFAFSNYPMSWVRQTPEMRLEWVAYISSGGDSTYYPGTVKGRFTISRDNAKSALYLQMSSLKSEDTAMYYCTFWFRGFDYWGQGTTLTVSS
VL: DVLMTQIPLSLPVSLGDQASLSCRSSQSIVHSNGNTYLEWYLQKPGQSPKLLIYKVSNRFSGVPDRFSGSGSGTDFTLKISRVEAEDLGVYYCFQGSHVPYTFGGGTKLEIK
Regarding B1, the affinity, expressed as Kd, was 0.00517 µM; the off-rate (koff) stood at 0.000161 s⁻¹; the on-rate (kon) was 31100 M⁻¹ s⁻¹.

One may read the Kd as the free concentration of one partner at which half of the binding sites on the other are occupied at equilibrium, for simple one-to-one binding. Higher therefore signals a looser complex. As a reminder, the koff is the first-order rate constant of dissociation. In general, kon refers to the rate constant with which the complex forms. Low values mean slow association, high ones fast association.
